Biological target: human IgG antibody (human)
Assay: SPR (Biacore), ligand immobilised on CM5

koff: 0.00032 s⁻¹
Substance: modified protein A (manufactured by Sino Biological Inc.)

Source: patent US20170210777A1
